US20230212319A1, “NOVEL ANTIGEN BINDING DOMAINS AND SYNTHETIC ANTIGEN RECEPTORS INCORPORATING THE SAME” (University of Southern California, priority 2020, published 2023)
“Also recorded” adds a separate entry of the source.

B1: 21887 (protein)
chain: MALPVTALLLPLALLLHAARPDIQMTQSPSSLSASVGDRVTITCKASQDVGTAVDWYQQKPGKAPKLLIYWASTRHTGVPSRFSGSGSGTDFTLTISSLQPEDFATYYCQQYNSYPLTFGQGTKVEIKRLEPSEAEISHTQKATLVCLATGFYPDHVELSWWVNGKEVHSGVCTDPQPLKEQPALNDSRYCLSSRLRVSATFWQNPRNHFRCQVQFYGLSENDEWTQDRAKPVTQIVSAEAWGRADCGFTSESYQQGVLSATILYEILLGKATLYAVLVSALVLMAMVKRKDSRGRAKRSGSGATNFSLLKQAGDVEENPGPTSMDWIWRILFLVGAATGAHSFEVQLVESGGGLVQPGGSLRLSCAASGYTFTEYTIHWVRQAPGKGLEWVANINPNNGGTTYNQKFEDRFTISRDNSKNTLYLQMNSLRAEDTAVYYCARGWNFDYWGQGTLVTVSSTRDKSVCLFTDFDSQTNVSQSKDSDVYITDKCVLDMRSMDFKSNSAVAWSNKSDFACANAFNNSIIPEDTFFPSPESSCDVKLVEKSFETDTNLNFQNLSVIGFRILLLKVAGFNLLMTLRLWSSRAKRSGSGVKQTLNFDLLKLAGDVESNPGPSRGHMTEYKPTVRLATRDDVPRAVRTLAAAFADYPATRHTVDPDRHIERVTELQELFLTRVGLDIGKVWVADDGAAVAVWTTPESVEAGAVFAEIGPRMAELSGSRLAAQQQMEGLLAPHRPKEPAWFLATVGVSPDHQGKGLGSAVVLPGVEAAERAGVPAFLETSAPRNLPFYERLGFTVTADVEVPEGPRTWCMTRKPGA
B2: 21886 (protein)
chain: MALPVTALLLPLALLLHAARPDIQMTQSPSSLSASVGDRVTITCKASQDVGTAVDWYQQKPGKAPKLLIYWASTRHTGVPSRFSGSGSGTDFTLTISSLQPEDFATYYCQQYNSYPLTFGQGTKVEIKRLEAEISHTQKATLVCLATGFYPDHVELSWWVNGKEVHSGVCTDPQPLKEQPALNDSRYCLSSRLRVSATFWQNPRNHFRCQVQFYGLSENDEWTQDRAKPVTQIVSAEAWGRADCGFTSESYQQGVLSATILYEILLGKATLYAVLVSALVLMAMVKRKDSRGRAKRSGSGATNFSLLKQAGDVEENPGPTSMDWIWRILFLVGAATGAHSFEVQLVESGGGLVQPGGSLRLSCAASGYTFTEYTIHWVRQAPGKGLEWVANINPNNGGTTYNQKFEDRFTISRDNSKNTLYLQMNSLRAEDTAVYYCARGWNFDYWGQGTLVTVSSTRDKSVCLFTDFDSQTNVSQSKDSDVYITDKCVLDMRSMDFKSNSAVAWSNKSDFACANAFNNSIIPEDTFFPSPESSCDVKLVEKSFETDTNLNFQNLSVIGFRILLLKVAGFNLLMTLRLWSSRAKRSGSGVKQTLNFDLLKLAGDVESNPGPSRGHMTEYKPTVRLATRDDVPRAVRTLAAAFADYPATRHTVDPDRHIERVTELQELFLTRVGLDIGKVWVADDGAAVAVWTTPESVEAGAVFAEIGPRMAELSGSRLAAQQQMEGLLAPHRPKEPAWFLATVGVSPDHQGKGLGSAVVLPGVEAAERAGVPAFLETSAPRNLPFYERLGFTVTADVEVPEGPRTWCMTRKPGA
B3: 21884 (protein)
chain: MALPVTALLLPLALLLHAARPDIQMTQSPSSLSASVGDRVTITCKASQDVGTAVDWYQQKPGKAPKLLIYWASTRHTGVPSRFSGSGSGTDFTLTISSLQPEDFATYYCQQYNSYPLTFGQGTKVEIKRLETIFLPSIAETKLQKAGTYLCLLEKFFPDVIKIHWQEKKSNTILGSQEGNTMKTNDTYMKFSWLTVPEKSLDKEHRCIVRHENNKNGVDQEIIFPPIKTDVITMDPKDNCSKDANDTLLLQLTNTSAYYMYLLLLLKSVVYFAIITCCLLRRTAFCCNGEKSRAKRSGSGATNFSLLKQAGDVEENPGPTSMDWIWRILFLVGAATGAHSFEVQLVESGGGLVQPGGSLRLSCAASGYTFTEYTIHWVRQAPGKGLEWVANINPNNGGTTYNQKFEDRFTISRDNSKNTLYLQMNSLRAEDTAVYYCARGWNFDYWGQGTLVTVSSTRPHTKPSVFVMKNGTNVACLVKEFYPKDIRINLVSSKKITEFDPAIVISPSGKYNAVKLGKYEDSNSVTCSVQHDNKTVHSTDFEVKTDSTDHVKPKETENTKQPSKSCHKPKAIVHTEKVNMMSLTVLGLRMLFAKTVAVNFLLTAKLFFLRAKRSGSGVKQTLNFDLLKLAGDVESNPGPSRGHMTEYKPTVRLATRDDVPRAVRTLAAAFADYPATRHTVDPDRHIERVTELQELFLTRVGLDIGKVWVADDGAAVAVWTTPESVEAGAVFAEIGPRMAELSGSRLAAQQQMEGLLAPHRPKEPAWFLATVGVSPDHQGKGLGSAVVLPGVEAAERAGVPAFLETSAPRNLPFYERLGFTVTADVEVPEGPRTWCMTRKPGA
B4: 21882 (protein)
chain: MALPVTALLLPLALLLHAARPDIQMTQSPSSLSASVGDRVTITCKASQDVGTAVDWYQQKPGKAPKLLISWASTRHTGVPSRFSGSGSGTDFTLTISSLQPEDFATYFCQQYNSYPLTFGQGTKVEIKRTVLEDLKNVFPPEVAVFEPSEAEISHTQKATLVCLATGFYPDHVELSWWVNGKEVHSGVCTDPQPLKEQPALNDSRYCLSSRLRVSATFWQNPRNHFRCQVQFYGLSENDEWTQDRAKPVTQIVSAEAWGRADCGFTSESYQQGVLSATILYEILLGKATLYAVLVSALVLMAMVKRKDSRGRAKRSGSGATNFSLLKQAGDVEENPGPTSMDWIWRILFLVGAATGAHSFEVQLVESGGGLVQPGGSLRLSCAASGFTFTDYTIHWVRQAPGKGLEWVANINPNNGGTTYNQKFEDRFTISRDNSKNTLYLQMNSLRAEDTAVYYCARGWNFDYWGQGTLVTVSSTRIQNPDPAVYQLRDSKSSDKSVCLFTDFDSQTNVSQSKDSDVYITDKCVLDMRSMDFKSNSAVAWSNKSDFACANAFNNSIIPEDTFFPSPESSCDVKLVEKSFETDTNLNFQNLSVIGFRILLLKVAGFNLLMTLRLWSSRAKRSGSGVKQTLNFDLLKLAGDVESNPGPSRGHMTEYKPTVRLATRDDVPRAVRTLAAAFADYPATRHTVDPDRHIERVTELQELFLTRVGLDIGKVWVADDGAAVAVWTTPESVEAGAVFAEIGPRMAELSGSRLAAQQQMEGLLAPHRPKEPAWFLATVGVSPDHQGKGLGSAVVLPGVEAAERAGVPAFLETSAPRNLPFYERLGFTVTADVEVPEGPRTWCMTRKPGA
B5: 21892 (protein)
chain: MALPVTALLLPLALLLHAARPDIQMTQSPSSLSASVGDRVTITCKASQDVGTAVDWYQQKPGKAPKLLIYWASTRHTGVPSRFSGSGSGTDFTLTISSLQPEDFATYYCQQYNSYPLTFGQGTKVEIKRLEDLKNVFPPEVAVFEPSEAEISHTQKATLVCLATGFYPDHVELSWWVNGKEVHSGVCTDPQPLKEQPALNDSRYCLSSRLRVSATFWQNPRNHFRCQVQFYGLSENDEWTQDRAKPVTQIVSAEAWGRADCGFTSESYQQGVLSATILYEILLGKATLYAVLVSALVLMAMVKRKDSRGRAKRSGSGATNFSLLKQAGDVEENPGPTSMDWIWRILFLVGAATGAHSFEVQLVESGGGLVQPGGSLRLSCAASGYTFTEYTIHWVRQAPGKGLEWVANINPNNGGTTYNQKFEDRFTISRDNSKNTLYLQMNSLRAEDTAVYYCARGWNFDYWGQGTLVTVSSTRIQNPDPAVYQLRDSKSSDKSVCLFTDFDSQTNVSQSKDSDVYITDKCVLDMRSMDFKSNSAVAWSNKSDFACANAFNNSIIPEDTFFPSPESSCDVKLVEKSFETDTNLNFQNLSVIGFRILLLKVAGFNLLMTLRLWSSRAKRSGSGVKQTLNFDLLKLAGDVESNPGPSRGHMTEYKPTVRLATRDDVPRAVRTLAAAFADYPATRHTVDPDRHIERVTELQELFLTRVGLDIGKVWVADDGAAVAVWTTPESVEAGAVFAEIGPRMAELSGSRLAAQQQMEGLLAPHRPKEPAWFLATVGVSPDHQGKGLGSAVVLPGVEAAERAGVPAFLETSAPRNLPFYERLGFTVTADVEVPEGPRTWCMTRKPGA

What follows are molecules tested on Huh-7 cells (assay: JNG NFAT-GFP induction on co-culture with Huh-7).

Molecule	NFAT-GFP ASSAY: Huh-7
B1	negligible GFP induction
B2	negligible GFP induction; also recorded: negligible activity
B3	negligible GFP induction
B4	negligible GFP induction
B5	negligible GFP induction

Each molecule was assayed on KMH2 (PSMA-low) cells (assay: JNG NFAT-GFP induction on co-culture with KMH2).

Molecule	NFAT-GFP ASSAY: KMH2
B1	negligible GFP induction
B2	negligible GFP induction; also recorded: negligible activity
B3	negligible GFP induction
B4	negligible GFP induction
B5	negligible GFP induction
